Test results: patent US20120295811, “APTAMERS DIRECTED AGAINST THE MATRIX PROTEIN-1 OF TYPE A INFLUENZA VIRUSES AND USES […]” (published 2012)

Biological target: Nucleoprotein (NP) (Influenza A virus, UniProt P03466 SEQ:1-498)
Assay: SPR; 2 uM, 22 C
Conditions: tags: His tag (pET28a, Co2+ resin purification), E. coli; label: 5'-amino-C12 linker (microarray); hairpin with bulge, internal loop and lateral small hairpin

Sequence of Nucleoprotein (NP) (P03466 whole entry): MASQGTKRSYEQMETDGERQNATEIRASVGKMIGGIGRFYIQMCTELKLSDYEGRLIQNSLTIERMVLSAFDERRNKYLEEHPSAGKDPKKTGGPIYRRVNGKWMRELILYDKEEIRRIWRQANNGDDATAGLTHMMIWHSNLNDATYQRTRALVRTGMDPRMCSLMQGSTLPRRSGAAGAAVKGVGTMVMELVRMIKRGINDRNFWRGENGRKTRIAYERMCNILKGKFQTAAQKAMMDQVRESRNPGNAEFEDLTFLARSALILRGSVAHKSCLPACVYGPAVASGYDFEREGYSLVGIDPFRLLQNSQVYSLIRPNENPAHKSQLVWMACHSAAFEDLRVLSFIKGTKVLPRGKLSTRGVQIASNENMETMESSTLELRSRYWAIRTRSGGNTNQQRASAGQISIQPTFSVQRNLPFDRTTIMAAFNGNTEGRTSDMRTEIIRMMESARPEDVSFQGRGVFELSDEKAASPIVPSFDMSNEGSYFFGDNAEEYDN

Binder | binding result
UGCCCUGACCAUCCUGAGGGACGCAUUGGCCGGGCA (ssRNA) [M1R9C6 36-mer] | no binding
UGCCUGACCACUCAGAAUCGAGCGCAUUGGCCGGCA (ssRNA) [M1R9C1 36-mer] | no binding
